Values quoted from earlier work as cited in patent US20250326839A1, “TREATMENT OF DISEASES RELATED TO COLONY-STIMULATING FACTOR 1 RECEPTOR DYSFUNCTION USING TREM2 AGONISTS” (Vigil Neuroscience, Inc., priority 2020, published 2025).
Where a chain is given by its changes, count along the chain named. In names and notes the source's numbering stands. Where two headings read alike, the source gives them in different places. Marks after values point to notes of the source that are not given here.

T1: TREM2 (Homo sapiens, UniProt Q9NZC2)
T1 sequence (Q9NZC2 19-230): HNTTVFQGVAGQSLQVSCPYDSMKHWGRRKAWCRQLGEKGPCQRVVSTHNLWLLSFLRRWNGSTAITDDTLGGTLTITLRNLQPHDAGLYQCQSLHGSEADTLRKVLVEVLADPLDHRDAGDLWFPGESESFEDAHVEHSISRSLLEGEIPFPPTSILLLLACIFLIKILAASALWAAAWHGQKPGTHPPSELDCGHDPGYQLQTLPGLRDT

B1: V87: 6E7 variant: VH T30R, T58V, S63D, Q99S; VL N56W (antibody, V domains shown)
VH: EVQLVQSGAEVKKPGESLKISCKGSGYSFRSYWIAWVRQMPGKGLEWMGIIYPGDSDVRYSPDFQGQVTISADKSISTAYLQWSSLKASDTAMYFCARSRTFYYDSSDYFDYWGQGTLVTVSS
VL: DIQMTQSPSSVSASVGDRVTITCRASQGISSWLAWYQQKPGKAPKLLIYAASSLQWGVPSRFSGSGSGTDFTLTISSLQPEDFATYFCQQADSFPRTFGQGTKLEIK
B2: V13: 6E7 variant: VH T30G, P62A, Q99G; VL N56G, F94M (antibody, V domains shown)
VH: B1 VH with R30G, V58T, P62A, D63S, S99G
VL: B1 VL with W56G, F94M
B3: V25: 6E7 variant: VH T30G, I50L, Q99S; VL Q55A, F94M (antibody, V domains shown)
VH: B1 VH with R30G, I50L, V58T, D63S
VL: B1 VL with Q55A, W56N, F94M
B4: V16: 6E7 variant: VH F29M, S56G, Q99S; VL S53N (antibody, V domains shown)
VH: B1 VH with F29M, R30T, S56G, V58T, D63S
VL: B1 VL with S53N, W56N
B5: V26: 6E7 variant: VH A35G, I50T, F102M, Y112A; VL N56R, F94Y (antibody, V domains shown)
VH: B1 VH with R30T, A35G, I50T, V58T, D63S, S99Q, F102M, Y112A
VL: B1 VL with W56R, F94Y
B6: V39: 6E7 variant: VH T30G, S61N, Q99G; VL Q55V, F94S (antibody, V domains shown)
VH: B1 VH with R30G, V58T, S61N, D63S, S99G
VL: B1 VL with Q55V, W56N, F94S
B7: V38: 6E7 variant: VH T30G, T58V; VL L54R, F94H (antibody, V domains shown)
VH: B1 VH with R30G, D63S, S99Q
VL: B1 VL with L54R, W56N, F94H
B8: V88: 6E7 variant: VH T30G; VL S53R, N56R, F94S (antibody, V domains shown)
VH: B1 VH with R30G, V58T, D63S, S99Q
VL: B1 VL with S53R, W56R, F94S
B9: V24: 6E7 variant: VH T58V, Q99S; VL N56K, R96H (antibody, V domains shown)
VH: B1 VH with R30T, D63S
VL: B1 VL with W56K, R96H
B10: V48: 6E7 variant: VH T30G, T58V, Q99M; VL N56T, F94L (antibody, V domains shown)
VH: B1 VH with R30G, D63S, S99M
VL: B1 VL with W56T, F94L
B11: V36: 6E7 variant: VH I34L, Q99S; VL L54R, F94Y (antibody, V domains shown)
VH: B1 VH with R30T, I34L, V58T, D63S
VL: B1 VL with L54R, W56N, F94Y
B12: V27: 6E7 variant: VH S61A, Q99S; VL N56R (antibody, V domains shown)
VH: B1 VH with R30T, V58T, S61A, D63S, A97V
VL: B1 VL with W56R
B13: V28: 6E7 variant: VH T30Q, I50T, Y103F; VL N56S, F94L (antibody, V domains shown)
VH: B1 VH with R30Q, I50T, V58T, D63S, S99Q, Y103F
VL: B1 VL with W56S, F94L
B14: V17: 6E7 variant: VH T30G, Q99S; VL L54R, F94S (antibody, V domains shown)
VH: B1 VH with R30G, V58T, D63S
VL: B1 VL with L54R, W56N, F94S
B15: V90: 6E7 variant: VH Y32E; VL S31R (antibody, V domains shown)
VH: B1 VH with R30T, Y32E, V58T, D63S, S99Q
VL: B1 VL with S31R, W56N
B16: V40: 6E7 variant: VH T30G, T58V, F110S; VL N56L, S93R (antibody, V domains shown)
VH: B1 VH with R30G, D63S, S99Q, F110S
VL: B1 VL with W56L, S93R
B17: V37: 6E7 variant: VH F29H, Q65A, Q99S; VL N56W, F94Y (antibody, V domains shown)
VH: B1 VH with F29H, R30T, V58T, D63S, Q65A
VL: B1 VL with F94Y
B18: V15: 6E7 variant: VH T30A, I50T, Q99S; VL S53W, F94Y (antibody, V domains shown)
VH: B1 VH with R30A, I50T, V58T, D63S
VL: B1 VL with S53W, W56N, F94Y
B19: V14: 6E7 variant: VH T30G, S56Q, Q99G; VL S53R (antibody, V domains shown)
VH: B1 VH with R30G, S56Q, V58T, D63S, S99G
VL: B1 VL with S53R, W56N

Molecular target: T1, TREM2
Conditions: cited from earlier work
[1] = 10 nM Ab concentration (values not marked *)

| Molecule | Binding Signal (fold over 6E7 parental antibody) 1st screen 110 nM or 10 nM [1] | Binding Signal (fold over 6E7 parental antibody) 2nd screen 2 nM (2nd screen) | Binding Signal (fold over 6E7 parental antibody) 2nd screen 10 nM (2nd screen) | Binding Signal (fold over 6E7 parental antibody) 1st screen 110 nM or 10 nM (110 nM Ab concentration (values marked *)) | Binding Signal (fold over 6E7 parental antibody) 2nd screen 100 nM (2nd screen, 100 nM) |
| --- | --- | --- | --- | --- | --- |
| B1 | 3.84 fold over 6E7 parental antibod | 4.86 fold over 6E7 parental antibod | 3.93 fold over 6E7 parental antibod | – | – |
| B2 | 1.31 fold over 6E7 parental antibod | 1.15 fold over 6E7 parental antibod | 1.35 fold over 6E7 parental antibod | – | – |
| B3 | 4.23 fold over 6E7 parental antibod | 3.15 fold over 6E7 parental antibod | 4.70 fold over 6E7 parental antibod | – | – |
| B4 | 4.01 fold over 6E7 parental antibod | 3.57 fold over 6E7 parental antibod | 4.04 fold over 6E7 parental antibod | – | – |
| B5 | 3.57 fold over 6E7 parental antibod | 2.83 fold over 6E7 parental antibod | 3.47 fold over 6E7 parental antibod | – | – |
| B6 | 6.15 fold over 6E7 parental antibod | 5.11 fold over 6E7 parental antibod | 5.81 fold over 6E7 parental antibod | – | – |
| B7 | 4.34 fold over 6E7 parental antibod | 3.44 fold over 6E7 parental antibod | 4.36 fold over 6E7 parental antibod | – | – |
| B8 | 4.92 fold over 6E7 parental antibod | 5.57 fold over 6E7 parental antibod | 5.30 fold over 6E7 parental antibod | – | – |
| B9 | 2.64 fold over 6E7 parental antibod | 1.42 fold over 6E7 parental antibod | 2.90 fold over 6E7 parental antibod | – | – |
| B10 | 2.42 fold over 6E7 parental antibod | 2.30 fold over 6E7 parental antibod | 2.54 fold over 6E7 parental antibod | – | – |
| B11 | 3.38 fold over 6E7 parental antibod | 4.00 fold over 6E7 parental antibod | 3.44 fold over 6E7 parental antibod | – | – |
| B12 | 5.50 fold over 6E7 parental antibod | 5.67 fold over 6E7 parental antibod | 5.69 fold over 6E7 parental antibod | – | – |
| B13 | 3.08 fold over 6E7 parental antibod | 2.63 fold over 6E7 parental antibod | 3.61 fold over 6E7 parental antibod | – | – |
| B14 | 5.37 fold over 6E7 parental antibod | 4.22 fold over 6E7 parental antibod | 5.51 fold over 6E7 parental antibod | – | – |
| B15 | – | – | – | 0.33* fold over 6E7 parental antibod | 0.36 fold over 6E7 parental antibod |
| B16 | 4.48 fold over 6E7 parental antibod | 3.41 fold over 6E7 parental antibod | 4.16 fold over 6E7 parental antibod | – | – |
| B17 | 3.46 fold over 6E7 parental antibod | 3.69 fold over 6E7 parental antibod | 3.49 fold over 6E7 parental antibod | – | – |
| B18 | 5.23 fold over 6E7 parental antibod | 4.72 fold over 6E7 parental antibod | 4.78 fold over 6E7 parental antibod | – | – |
| B19 | 4.71 fold over 6E7 parental antibod | 2.57 fold over 6E7 parental antibod | 4.64 fold over 6E7 parental antibod | – | – |
